The results in this text go back to patent publication US20240156864A1.

In this assay the target is CAR19.28ζ. Briefly: co-IP with anti-CAR19 Ab from CAR-T cell lysate, LC-MS/MS.
Sequence of CAR19.28ζ (chain, as listed by the source limits assumed): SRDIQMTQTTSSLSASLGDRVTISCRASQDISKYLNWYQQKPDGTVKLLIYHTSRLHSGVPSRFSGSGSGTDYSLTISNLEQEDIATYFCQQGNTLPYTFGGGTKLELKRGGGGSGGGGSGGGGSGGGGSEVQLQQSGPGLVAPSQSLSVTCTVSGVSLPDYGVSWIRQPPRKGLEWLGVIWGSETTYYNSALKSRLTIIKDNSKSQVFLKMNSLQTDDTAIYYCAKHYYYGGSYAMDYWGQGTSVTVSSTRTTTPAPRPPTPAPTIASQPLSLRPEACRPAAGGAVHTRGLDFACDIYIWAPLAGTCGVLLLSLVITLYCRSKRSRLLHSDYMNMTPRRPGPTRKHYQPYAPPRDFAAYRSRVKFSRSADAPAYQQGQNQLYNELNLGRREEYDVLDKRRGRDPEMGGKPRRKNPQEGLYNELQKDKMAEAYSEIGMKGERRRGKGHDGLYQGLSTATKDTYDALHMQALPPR

“PIK3CD (from UniProt O00329 1-1044) (enzyme)” came in with an Area of 1.79e+08 and a Coverage of 13%.
For PIK3R1 (from UniProt P27986 2-724), in that order: 2.3e+08 and 17%.
In the same order, the values of “LCK (from UniProt P06239 2-509) (enzyme)” are 6.84e+08 and 32%.
Turning to THEMIS (from UniProt Q8N1K5 1-641), the Area worked out at 1.89e+07, the Coverage was found to be 3% and the Peptides (number identified) was 2.
Turning to “CD8α (from UniProt P01732 22-235) (receptor)”, the Area was 1.59e+08 and the Coverage worked out at 32%.
